Measurements from the DeepSol protein solubility set.

Assay: soluble on expression in E. coli; label from the status in PepcDB or PDB records

Sequence	soluble on expression in E. coli
MFRMPIVTMERVDSFSAAHRLHSEKLSDAENKETFGKCNNSNGHGHNYVWKVKLRGEVDPTSGMVYDLAKLKKEMSLVLDTVDHRNLDKDVEFFKTTVSTSENVAIYMFEKLKSVMSNPSVLYKVTIEETPKNIFTYKGC	not soluble
SIAYIEPYFLENDAEAASAATAAGKSTDGVSESLNIQGEILCGGAAADIAGRDFGGMNCVKPLAVVRPVGPEDIAGAVKAALRSDKLTVAARGNGHSINGQAMAEGGLVVDMSTTAENHFEVGYLSGGDATAFVDVSGGALWEDVLKRCVSEYGLAPRSWTDYLGLTVGGTLSNAGVSGQAFRYGPQTSNVTELDVVTGNGDVVTCSEIENSELFFSVLGGLGQFGIITRARVLLQPAPDMVRWIRVVYTEFDEFTQDAEWLVSQKNESSFDYVEGFVFVNGADPVNGWPTVPLHPDHEFDPTRLPQSCGSVLYCLELGLHYRDSDSNSTIDKRVERLIGRLRFNEGLRFEVDLPYVDFLLRVKRSEEIAKENGTWETPHPWLNLFVSKRDIGDFNRTVFKELVKNGVNGPMLVYPLLRSRWDDRTSVVIPEEGEIFYIVALLRFVPPCAKVSSVEKMVAQNQEIVHWCVKNGIDYKLYLPHYKSQEEWIRHFGNRWSRFVDRKAMFDPMAILSPGQKIFNRSL	soluble
MNDDALPVHSTDLLDFDEDFIKIDAAICEYDSVGHAPQRKGESAFQWASVETACLALLKKAKDVRVAIWYLRACIARRGLSGLADGVRLLAELMSAPVEELHPRALPDESPGETLLIHLGWLAGPQFLHQLGSSRFEDRDATLNDLIGGRAAAIVEDRDYCVRANTLVHDIKDSLSRIRESVAVVEQELNLSRSLDLLSVAASRLARTDAGRAESESVAGEKPAHAEAGFSPAPDPQQPAAGPGGALRSRQEVGVALERIVEYFRLHEPSHPAPIFLSRIQRMLGAGFEEVMAELYPEAASLVAQLNRPQSSIK	not soluble
MPSGVCEPKERSPCMNKIDKLDKELEKAREKAAEWQAKIRELEKQKQEEENSQIVQAVRSLKLTPAQLMAFLNDPKNSLTASGHTDPKPEAPEKEDTAHEEN	not soluble
ACTKNAIAQTGFNKDKYFNGDVWYVTDYLDLEPDDVPKRYCAALAAGTASGKLKEALYHYDPKTQDTFYDVSELQVESLGKYTANFKKVDKNGNVKVAVTAGNYYTFTVMYADDSSALIHTCLHKGNKDLGDLYAVLNRNKDAAAGDKVKSAVSAATLEFSKFISTKENNCAYDNDSLKSLLTK	soluble
MGSDKIHHHHHHMKKPSQFDAIVVGAGPSGNAAAYTMARAGLKVLQIERGEYPGSKNVQGAILYAKALEEIIPDFRDDAPLERHIIEQRIWMLDDTSFVGTHMRSEEYNKPPYNRYTIIRAQFDKWFSSKVREAGALLICETTVKQLIMDGDQVVGVQCDREHGDVYADVVVLADGVNSTLARKAGFHGEIEAGNVALAVKEILFMPEETIRQRFNIGEDDGVVIEMVGRITDGMTGTGFLYTNKESLTIGVGCMLGDFKKNPNRTSPYVLLEKMKQHPSIAPLIAGGEMKEYCAHLIPEGGFHAIPRVYGNGWMIVGDSGGFVNAAHREGSNLAMTTGRLAAETVIHAKAAGLGYRAATLKAYKAALDQSFVMKDLHKYRDMPAVLHQNPQFFTTYPDLVARAARTMLTVDGKDKKSKEREIFSSFRKARSLAGMVGDAYKLLRAFR	not soluble
MGSDKIHHHHHHMKKSKHISQSELESYLWGAATLLRGYIDAGDYKQFIFPLLFYKRLCDVYDEELADALEESGGDQEYAALPEQHRFQIPEDAHWKATRTKVKNVGKAIQDALRAIETANPDTLYGVFGDAQWTNKDRLPDRMLRELIEHFSSQTLSLSNCPEDELGVGYEFLIKKFADDSGHTAAEFYTNRTVVHLMTEMLEPKPGESIYDPTCGSAGMLLSAVAHLKRQNKEWRNLRLFGQERNLLTSAIGRMNLFLHGIEDFRIVRGDTLANPAFVEGDRLMQFDVVLANPPYSIKQWDRDAWSADPWGRNIYGTPPQGRADYAFWQHIIKSMKAKSGRCAILFPHGVLFRNEESAMREKLVAHDVVECVLGLGPNLFYNSPMEACVVICRMNKPKERRNKVLFINAVNEVTRERAQSFLTDDHIQRIVAAYQAFGDEDGFARVVGNDEIREKASNLSIPLYVRAENGNGNGNGSTETVSLKQAIANWQESSMALRESMDGLLSSLEGGLHGS	not soluble
SENLTMNIDSTKTIQGTILPVLDFKTEKENVFTFKNTANLNLLIKHGQVINLINKLEFSTYGNKVTVSGGYVHTEYRYLLHHVFEVYPYVESQWAESRGMKYKVSTGLQSRYR	not soluble
MTTVFDVPAAEMIDKLAGILKENENVVPPQWAGNVKTGVHKDLPPTNDDWWYVRCAAVLRKIYTDGPIGIERLRSVYGGKKDNGSQPYHKAKGSGSIARKSVQQLEAAGFLQKVKDGRTVSAKGRSMMDNAAHELKQELLEKIPELAKYLEHHHHHH	soluble
MELFLTGVVLKPKGLKGELKVKPVTDFPESFLTRREYYIGKTPEDAVLRKVQSARFHQGFAWLVFEGAGSREGAEALVGCGLYVTRDALVAMPDDRAYIHELIGLDVFDETEGRVGKISDVLQMPAHDVYEVDTGDRKVLIPAVEDFITETDLEKGMVRLKRFKEFLLEHHHHHH	soluble
SNAMKVKIYTRNGCPYCVWAKQWFEENNIAFDETIIDDYAQRSKFYDEMNQSGKVIFPISTVPQIFIDDEHIGGFTELKANADKILNKK	soluble
HRTRIEDESIHKLVLDAHRCIHQHLDVLHQQLHQHCEECDLSNIDDAGLEQRLNEWRDEDDSSARMVLQQLHLIYRMLPELHSLASKFAVRVN	not soluble
MSLKAKYVWVALLALTFFGCDDNTGTIGWDMLPDSDQNINGRYTTYELTTNSDLSGPVFAKTSVGYVGKFTDKEFGEYEASFLAQLNSPDGISFPSVYDPETNPKGVMAGDSIHTAELILYYKSYFGDSINPCRMTVYELDENLTQNYYTDIDPLKYYNPNNLLARKAYTAVDQSLSDSIRNSDDFYPNVRLTSEEITKLGKRIYRLNRDHPEYFKTSEAFINNVFKGIYAKNDYGNGTILYVDQINLNVVIRCHEKDSLGNNLKKKNGADSLYYTTRTFATTKEVIQANKFVNSEKLNEIAKKTDCTYLKSPAGIFTQATLPINKIYEELSHDTINAVKLTFNSYNQPDNGKFSMKAPTYVLLLREKERQSFFEENKLTDNITSYLAVHNAIISNKPTTNQYVFTNLTRLINACVNEKQEAKKKAGDSWNEAAWEAANPDWNKVVLIPVLVQYDSSSNKNMISIQHDLQPGYVKLEGGPDGTKLKLEVTYTNFNGKEGHHHHHH	not soluble
MVDPNEHKKAVKTQQQDDEQTFEAVARAWHTDNKKWSESHAERILKSLSDNIFPAIGGTHVANLKTRDLLTPIKSVERSGRLEVAKRLKQRVTAIMTYAVQNGLIDYNPAQDMAGAIMPGKVEHRLEHHHHHH	not soluble
MAHHHHHHMLRRTVARFMASEAIGPAHPDILWGFMDGRYAGPGWVSWIKQLPVETLTMQGGTSMTNMNDRAGVILDPEDPRHSMALIQWGPMNHYDGAFMQLSYGDYGEIKKGSRLMQVLYDHYLEPFSMNRVCAQLYFYQKVPNNYHASVEASAEYIGQTASLVGQVVVGMGSVIMEGVTVKGDTNCVYIAEGVQVMENTCIVSDAPTDLLAYQRHEAINPYQQWDGMDGVCRIMQNTMIEPNCFLDSCSIGPFNRIGHNTKILKGVTTGTMVHILPGSVVTADTRIGDGELWGGAPAVKLGKVSKFEWKRPYYASLLHKECVVESYRNMSRYGDQVVYFQDEMGKLDTLMLQFESDITPSVKAKMKEFVQGREPFHHMLTRITQGWSPANRPDDKNYNLCPPLPAVKLFAEHNNDSSDSSLHGTYMNITNIFNDFRW	not soluble
MGSDKIHHHHHHMNYPTTRLNWPRAWRVIPSRFPAVGLFERVASPDDFDALYALEAMTNDRLRDEVGDISLVPPEERLFGPGSTCIMAAFTHLNPQGSRFSDGSYGVFYCARKRDTAIAETRYHSARFMQATREPPMRLQMRLYSVQARGEAADLRVASKSDPRIVAPDDYSYPQAIGRSLRAAGALGIVYPSVRHSGGGCLAALRTGIVKNCLHAAYLEYNWNGEGIDAVFEVNRVL	not soluble
MGSDKIHHHHHHNDPNIQIATQDSLSTLNYRINQLLKNGTVTSSSKKNPEVKTDTDKTANDSTSDSRVWSKPEANVYIDIHDNMQLRSATIDAMNAWNRTGAFTFKQIDNKKNAQIIVNVVDDSGTDAAGETATTYNPATGHLLKATVHLNRYYLQNEWYGYSNNRIINTAEHELGHAIGLNHTNSVSVMYPKGSIYTIQPQDIKNLKKIYHEN	not soluble
MIKRILKIWFIIGMYELSKYLTNELIIYLQSEDDIDTAPKDFAILDDQIDLNRSFRRQIENDIAKAFEDAFNSSEKEDNLEHHHHHH	not soluble
MAHHHHHHMQMRRDALGNGKALEFAKELSLAYKQVIQATQHIGKQRQALTGCTDLSVKTREWAAAEHDIAGALEKYGAAPYWVEQRGWRPGRLQSFEAAHSRASSGTEVSYLCSRLRGYVKAAFTAHVTKPPKLNASEVDVAELLTFFTGSGDGALVVEVALAKFFVVENMHVRAPELWVMNYLLHCYGVEEGIMLAHEADVVDGGFKQQGGGAFEEQFLIQKNIWAVSQVLVPHCYAVTRCDEATAKAGVEACVRCEGTEGQGTEGAFPTWPGTPPASLPPAYRLARSVNDYGKEAGEDKTSRIIGELDGVIYDASARQVLLVLEAKQNIDVCKAFKQKERLYNALDATRKTLSQASQGAALTAVQLSAENETKTATTTAAGRNATPAAEAACAASTKLHTEPVVLRFFVTPTTAAEAARENFSVNGCSLVTGVGAEPAANFQDMRNSGDMASAAAPPVRSKAAAARLATAGNPFFTQDNFAAFFGATASAVQGDSTAPSPTPTRSDSMTPRHLGRDQRWIYLTSLSTGNSPGARTTVPAPGGTIHMVELTLVKTACNFVAEAYDSYFQISTLPPTATPALQSLVSAMRVCSAYAPETEPMALFHLFLELPPQECISARAETAAVSRSDPCEYVLHLFRHDVRCKDGAAALEQVWLRENFIDGLVLSEHSFI	not soluble
MPGALSHIRVLDLSRVLAGPWAGQILADLGAEVIKIERPGSGDDTRAWGPPFLKDAEGNDTSEAAYYLSANRNKKSVTVDFTQPEGQRIVRELAAKADILLENFKVGGLKAYGLDYESLKQVNPKLIYCSITGFGQSGPYAKRAGYDFMIQGLGGLMSLTGRADNEEGAGPVKVGVALTDILTGLYSSTAVLAALAHRDVSGIGQHIDMALLDVQVACLANQTLNYLTTGVPPRRLGNAHPNIVPYQDFPTADGDMILTVGNDSQFRKFAELADHPEWADDPRFATNKARVANREVLIPLIRQATVLHTTAEWILSLERAGVPCGPINDLAQVFADPQVQARGLRVELPHPLAGTVPQVASPIRLSETPVEYRNPPPTLGQHTDEVLETLLGLDAAALERLRDGKVI	not soluble
MEMEHINENTIRVLIGNEDLADRGITFLDLLGNHKDVENFFYSILEEVDVEDEFQGSEAVTFQVLPKNDGLELFISKNVAMDDLSSLEGLSEVNADVSELIRKQIEADKAAADELDEMEATDETNRNVIFELDNFEAMIQLSKEVFMQSVLTNLYTYNDRYYLQVLFLTDELEKTNVDNEIAQILEFAHKTTVTQDTLVEYGTCIMERSALELTRYYFND	not soluble
MLSFTLRRAMSFTTRILKVRPESIQFVNDKPQISDNETLINLEIAAKELTTTHNAIGFPTETVYGLAGSALSDESVKSIYKAKNRPADNPLIVHISSIEQLKRKLINYEIPQVYLDLISHFWPGPLTILLPITKDSPISKLVTANQDTFAVRMPNHPVARALIAMSDTPIAAPSANASTRPSPTLAEHVYHDLNGKIPLILDGGACNVGVESTVIDGLVDPPMLLRPGGVSLEDIKRVGGKLWENIVVAKKTAGKLEPVKTPGMKYRHYSPTAKVVLFVNCGDGINAIENYLTNNKVDASTTKIALLKSKHFGEDHPHFIIKRLGTTGNEISHNLFKYLREVDEEDKVELIFVEGIDETNEGLAVMNRLSKAAMEVVNGGEA	soluble
